From patent US8895526B2, “Identification of RNAI targets and use of RNAI for rational therapy of chemotherapy-resistant leukemia and other cancers” (Cold Spring Harbor Laboratory, priority 2009, dated 2014)

B1: Dsp.6155: shRNA, SEQ ID NO: 114 (nucleic acid)
chain: TGCTGTTGACAGTGAGCGCCAGGAAGTTCTTCGATCAATATAGTGAAGCCACAGATGTATATTGATCGAAGAACTTCCTGTTGCCTACTGCCTCGGA
B2: Gart.2470: shRNA, SEQ ID NO: 126 (nucleic acid)
chain: TGCTGTTGACAGTGAGCGCAAGAATCTGATTGAAACCATATAGTGAAGCCACAGATGTATATGGTTTCAATCAGATTCTTATGCCTACTGCCTCGGA
B3: Thyn1.315: shRNA, SEQ ID NO: 186 (nucleic acid)
chain: TGCTGTTGACAGTGAGCGCAAGCAACTACTGGCTGATGAATAGTGAAGCCACAGATGTATTCATCAGCCAGTAGTTGCTTATGCCTACTGCCTCGGA
B4: Gas1.2159: shRNA, SEQ ID NO: 128 (nucleic acid)
chain: TGCTGTTGACAGTGAGCGACCCGAAATTACAACTGCATTATAGTGAAGCCACAGATGTATAATGCAGTTGTAATTTCGGGGTGCCTACTGCCTCGGA
B5: Pctk1.948: shRNA, SEQ ID NO: 161 (nucleic acid)
chain: TGCTGTTGACAGTGAGCGCCCGGGAAGTATCCCTGCTTAATAGTGAAGCCACAGATGTATTAAGCAGGGATACTTCCCGGATGCCTACTGCCTCGGA
B6: Pygl.1463: shRNA, SEQ ID NO: 171 (nucleic acid)
chain: TGCTGTTGACAGTGAGCGCACCAGACAAGTTCCAGAATAATAGTGAAGCCACAGATGTATTATTCTGGAACTTGTCTGGTTTGCCTACTGCCTCGGA
B7: Fn3k.298: shRNA, SEQ ID NO: 122 (nucleic acid)
chain: TGCTGTTGACAGTGAGCGAAAGAGCCTTAGCAGTCAGGCATAGTGAAGCCACAGATGTATGCCTGACTGCTAAGGCTCTTCTGCCTACTGCCTCGGA
B8: Arf3.1357: shRNA, SEQ ID NO: 91 (nucleic acid)
chain: TGCTGTTGACAGTGAGCGACCCTTCTGTGTTGGTGAGATATAGTGAAGCCACAGATGTATATCTCACCAACACAGAAGGGCTGCCTACTGCCTCGGA
B9: Mef2c.1872: shRNA, SEQ ID NO: 141 (nucleic acid)
chain: TGCTGTTGACAGTGAGCGCTGCCTCAGTGATACAGTATAATAGTGAAGCCACAGATGTATTATACTGTATCACTGAGGCAATGCCTACTGCCTCGGA
B10: Pitpnm1.561: shRNA, SEQ ID NO: 165 (nucleic acid)
chain: TGCTGTTGACAGTGAGCGCCAGGATGCTTATCAAGGAGTATAGTGAAGCCACAGATGTATACTCCTTGATAAGCATCCTGATGCCTACTGCCTCGGA
B11: Ap1s2.2744: shRNA, SEQ ID NO: 90 (nucleic acid)
chain: TGCTGTTGACAGTGAGCGACAGGAGCAAGATGAGTTACTATAGTGAAGCCACAGATGTATAGTAACTCATCTTGCTCCTGCTGCCTACTGCCTCGGA
B12: Cpd.1693: shRNA, SEQ ID NO: 109 (nucleic acid)
chain: TGCTGTTGACAGTGAGCGCACCAGGTGAACCAGAATTTAATAGTGAAGCCACAGATGTATTAAATTCTGGTTCACCTGGTTTGCCTACTGCCTCGGA
B13: Slc22a4.2223: shRNA, SEQ ID NO: 181 (nucleic acid)
chain: TGCTGTTGACAGTGAGCGCAAACGTATAAATGCTATCCAATAGTGAAGCCACAGATGTATTGGATAGCATTTATACGTTTATGCCTACTGCCTCGGA
B14: Adam23.5211: shRNA, SEQ ID NO: 89 (nucleic acid)
chain: TGCTGTTGACAGTGAGCGCTACGACCACGTCAGTTACAAATAGTGAAGCCACAGATGTATTTGTAACTGACGTGGTCGTATTGCCTACTGCCTCGGA
B15: Fn1.4143: shRNA, SEQ ID NO: 121 (nucleic acid)
chain: TGCTGTTGACAGTGAGCGCCAGTAGGATACTACACAGTTATAGTGAAGCCACAGATGTATAACTGTGTAGTATCCTACTGATGCCTACTGCCTCGGA
B16: Tnfsf12.1204: shRNA, SEQ ID NO: 187 (nucleic acid)
chain: TGCTGTTGACAGTGAGCGCAATGGATATTAAAGAGAATAATAGTGAAGCCACAGATGTATTATTCTCTTTAATATCCATTTTGCCTACTGCCTCGGA
B17: L1cam.5255: shRNA, SEQ ID NO: 137 (nucleic acid)
chain: TGCTGTTGACAGTGAGCGCCAGAATTATAACAGGCAAATATAGTGAAGCCACAGATGTATATTTGCCTGTTATAATTCTGATGCCTACTGCCTCGGA
B18: Cd6.520: shRNA, SEQ ID NO: 102 (nucleic acid)
chain: TGCTGTTGACAGTGAGCGAGAGCCACTTCTGGGAACACAATAGTGAAGCCACAGATGTATTGTGTTCCCAGAAGTGGCTCCTGCCTACTGCCTCGGA
B19: Cerk.4466: shRNA, SEQ ID NO: 108 (nucleic acid)
chain: TGCTGTTGACAGTGAGCGCCTGGTATATTTGAGAAGACAATAGTGAAGCCACAGATGTATTGTCTTCTCAAATATACCAGATGCCTACTGCCTCGGA
B20: Fgd4.821: shRNA, SEQ ID NO: 119 (nucleic acid)
chain: TGCTGTTGACAGTGAGCGAAAGGAGACTAATGAACAGAAATAGTGAAGCCACAGATGTATTTCTGTTCATTAGTCTCCTTCTGCCTACTGCCTCGGA
B21: Fosb.1165: shRNA, SEQ ID NO: 123 (nucleic acid)
chain: TGCTGTTGACAGTGAGCGCCAGGCGGAAACTGATCAGCTTTAGTGAAGCCACAGATGTAAAGCTGATCAGTTTCCGCCTGATGCCTACTGCCTCGGA
B22: Cx3cr1.1223: shRNA, SEQ ID NO: 111 (nucleic acid)
chain: TGCTGTTGACAGTGAGCGACTGCATCTTATGTGCAAGAAATAGTGAAGCCACAGATGTATTTCTTGCACATAAGATGCAGGTGCCTACTGCCTCGGA
B23: Slc12a5.3582: shRNA, SEQ ID NO: 179 (nucleic acid)
chain: TGCTGTTGACAGTGAGCGAAACGAGGTCATCGTGAATAAATAGTGAAGCCACAGATGTATTTATTCACGATGACCTCGTTCTGCCTACTGCCTCGGA

system: immortalized murine embryonic fibroblasts (Mef); assay: Pooled negative selection RNAi screening (deep sequencing); assay type: cell-based; settings: deep sequencing reads, on dox compared to initial representation
Source text: (§1) In addition to the analysis of single shRNAs for inhibitory effects in vitro and in vivo, the combination of tet-on competent cancer models and tet-regulatable shRNA expression vectors allowing for monitoring shRNA expression through fluorescent and other reporter genes (e.g. TRMPV and derivates) facilitates pooled shRNA negative selection screening (FIG. 37). In such approaches a pool of over 1,000 shRNAs are retrovirally transduced into tet-on competent cancer models (here MLL/AF9+Nras AML) and selected for shRNA containing cells by either drug selection (e.g. G418) or fluorescence-activated cell sorting (FACS). Selected cell populations harboring a library of shRNAs then can be cultured in the absence or presence of doxycyline (off dox and on dox, respectively) or injected into syngeneic recipient mice that are either treated with doxycyline or left untreated.
(§2) The representation of each shRNA within the pool can be effectively assessed by deep sequencing of shRNA cassettes in a given cell population. For this, genomic DNA is extracted from leukemia cells containing the shRNA pool, and the shRNA guide or passenger strand (21-22 target gene specific nucleotides of the shRNA) by PCR using primers specific for common sequences flanking the gene specific part of the shRNA (e.g. miR30 19 nt loop and miR30 common 3′ sequence). The primers also contain 5′-adapters required for deep sequencing (e.g. for Illumina/Solexa sequencing primers are p5+mir3: 5′-[…]-3′ (SEQ ID NO: 215) and p7+Loop: 5′-[…]-3′ (SEQ ID NO: 216)). Deep sequencing is subsequently performed using a primer binding the flanking nucleotide sequence next to the target gene specific part of the shRNA (for Illumina/Solexa platforms the primer is mir30EcoR1Seq: 5′-TAGCCCCTTGAATTCCGA GGCAGTAGGCA-3′ (SEQ ID NO: 217)).
(§3) The use of shRNA vectors that allow for monitoring of shRNA expression through fluorescent and other reporter genes (e.g. TRMPV) in combination with tet-on competent mouse models facilitates the isolation of pure shRNA expressing cell populations (e.g. by FACS, for TRMPV by sorting of Venus/dsRed double positive cells (FIG. 38). This selection of shRNA expressing cells prior to DNA isolation strongly reduces the background caused by cell populations with insufficient shRNA induction, which are predicted to contain genomic representation of the whole shRNA library without shRNA specific shifts in representation. The final readout is based on the comparison of shRNA representation (i.e. deep sequencing read numbers) before the assay (t0) or from cell populations left without doxycycline treatment (off dox) to those where shRNA were induced and cells subsequently sorted for shRNA expressing cells (on dox). shRNA with inhibitory effects are predicted to loose representation (show less reads) on dox compared to t0 and off dox.
(§4) This pooled is RNAi screening strategy can be applied to rapidly survey inhibitory effects of large pools of shRNAs (˜1000 at a time) in different tet-on competent cancer models and normal control cells (FIG. 39). For example, a pool of 1166 shRNAs targeting 836 predominantly druggable genes associated with MLL fusion proteins in human leukemia and mouse models of MLL/AF9-induced AML (MLL cure library) was analyzed in pooled negative selection screening in tet-on competent MLL/AF9+Nras AML and immortalized murine embryonic fibroblasts (Mef) in parallel. To establish and validate this screening approach, the pool also contained 64 control shRNAs each of which have been previously analyzed for inhibitory effects in both AML cells and Mefs using the same experimental system (FIG. 40).
(§5) After pooling of 1166 experimental and 64 control shRNAs the presence of shRNAs was verified by deep sequencing of shRNAs within the plasmid vector pool (FIG. 41). […]

Molecule	Fold depletion in Mef [Fold]
B1	0.60
B2	0.67
B3	1.04
B4	0.81
B5	0.27
B6	1.94
B7	2.82
B8	0.86
B9	0.77
B10	0.27
B11	2.31
B12	3.91
B13	3.41
B14	0.30
B15	0.84
B16	0.93
B17	1.26
B18	2.28
B19	0.61
B20	2.12
B21	3.61
B22	0.69
B23	2.21

system: tet-on competent MLL/AF9+Nras AML; assay: as above; assay type: cell-based, mouse; settings: deep sequencing reads, On Dox compared to T0
Source text: as §1, §2, §3, §4, §5

Molecule	Fold depletion in AML [Fold]
B1	242.96
B2	146.15
B3	145.53
B4	132.34
B5	123.76
B6	118.65
B7	103.54
B8	94.96
B9	63.15
B10	60.72
B11	57.84
B12	50.07
B13	41.21
B14	40.11
B15	36.54
B16	36.03
B17	31.42
B18	28.66
B19	27.79
B20	25.66
B21	13.12
B22	12.98
B23	12.58
